Test results reported in US20050266509.

What was measured:
[1] = target: NR2B, full length clone (NMDA receptor subunit), Q13224
[2] = target: constitutive active Src kinase

Chain of NR2B, full length clone (NMDA receptor subunit), Q13224 (Q13224 27-1484): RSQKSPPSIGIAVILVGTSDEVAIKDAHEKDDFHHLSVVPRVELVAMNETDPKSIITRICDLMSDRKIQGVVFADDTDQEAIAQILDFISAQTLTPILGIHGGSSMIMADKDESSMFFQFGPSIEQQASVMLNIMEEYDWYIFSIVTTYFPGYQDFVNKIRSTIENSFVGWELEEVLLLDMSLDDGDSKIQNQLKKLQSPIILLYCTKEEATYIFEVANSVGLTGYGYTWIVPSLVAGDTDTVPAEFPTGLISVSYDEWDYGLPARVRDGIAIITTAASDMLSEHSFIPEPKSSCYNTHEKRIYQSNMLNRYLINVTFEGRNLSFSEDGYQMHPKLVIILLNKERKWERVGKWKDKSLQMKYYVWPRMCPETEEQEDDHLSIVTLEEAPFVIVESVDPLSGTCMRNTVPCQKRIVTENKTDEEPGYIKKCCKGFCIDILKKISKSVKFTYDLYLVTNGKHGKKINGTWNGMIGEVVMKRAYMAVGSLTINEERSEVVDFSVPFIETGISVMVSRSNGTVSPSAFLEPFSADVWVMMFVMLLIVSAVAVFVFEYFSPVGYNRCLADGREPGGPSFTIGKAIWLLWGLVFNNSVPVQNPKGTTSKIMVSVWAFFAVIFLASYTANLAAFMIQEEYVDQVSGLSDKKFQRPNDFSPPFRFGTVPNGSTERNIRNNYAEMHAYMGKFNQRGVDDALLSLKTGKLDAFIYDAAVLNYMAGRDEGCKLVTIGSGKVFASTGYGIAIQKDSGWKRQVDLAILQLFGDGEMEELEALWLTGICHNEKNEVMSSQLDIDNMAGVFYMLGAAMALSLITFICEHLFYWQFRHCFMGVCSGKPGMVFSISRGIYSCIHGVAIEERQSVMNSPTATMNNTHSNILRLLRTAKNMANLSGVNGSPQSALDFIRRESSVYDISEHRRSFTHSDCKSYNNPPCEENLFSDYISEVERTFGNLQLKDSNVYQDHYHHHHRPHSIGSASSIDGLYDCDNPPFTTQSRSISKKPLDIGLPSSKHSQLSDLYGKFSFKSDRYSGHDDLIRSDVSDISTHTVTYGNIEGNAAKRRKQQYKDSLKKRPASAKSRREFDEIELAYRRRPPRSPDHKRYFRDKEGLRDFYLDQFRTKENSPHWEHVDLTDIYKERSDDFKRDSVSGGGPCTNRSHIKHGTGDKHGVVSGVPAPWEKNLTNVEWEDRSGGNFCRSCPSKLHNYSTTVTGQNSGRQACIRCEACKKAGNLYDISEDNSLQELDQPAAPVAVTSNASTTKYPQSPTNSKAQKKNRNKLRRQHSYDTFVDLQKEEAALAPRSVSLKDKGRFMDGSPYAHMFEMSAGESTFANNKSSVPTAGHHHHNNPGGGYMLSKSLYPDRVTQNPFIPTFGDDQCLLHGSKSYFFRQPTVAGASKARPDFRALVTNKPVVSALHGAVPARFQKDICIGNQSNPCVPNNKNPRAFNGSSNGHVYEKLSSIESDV

Protein | NR2B tyrosine phosphorylation, western blot with an NR2B phosphospecific antibody [1] | Src phosphorylation at position 418, western blot with anti PY418 antibody [2] | phosphorylation at Y418, western blot with a Src/fyn specific phosphoantibody [2] | NR2B tyrosine phosphorylation, western blot [1] | Src phosphorylation at position 418, western blot [2]
PTPMEG, full length clone (amino-terminal myc-tag, c-terminal HA tag) (protein) MTSRFRLPAGRTYNVRASELARDRQHTEVVCNILLLDNTVQAFKVNKHDQGQVLLDVVFKHLDLTEQDYFGLQLADDSTDNPRWLDPNKPIRKQLKRGSPYSLNFRVKFFVSDPNKLQEEYTRYQYFLQIKQDILTGRLPCPSNTAALLASFAVQSELGDYDQSENLSGYLSDYSFIPNQPQDFEKEIAKLHQQHIGLSPAEAEFNYLNTARTLELYGVEFHYARDQSNNEIMIGVMSGGILIYKNRVRMNTFPWLKIVKISFKCKQFFIQLRKELHESRETLLGFNMVNYRACKNLWKACVEHHTFFRLDRPLPPQKNFFAHYFTLGSKFRYCGRTEVQSVQYGKEKANKDRVFARSPSKPLARKLMDWEVVSRNSISDDRLETQSLPSRSPPGTPNHRNSTFTQEGTRLRPSSVGHLVDHMVHTSPSEVFVNQRSPSSTQANSIVLESSPSQETPGDGKPPALPPKQSKKNSWNQIHYSHSQQDLESHINETFDIPSSPEKPTPNGGIPHDNLVLIRMKPDENGRFGFNVKGGYDQKMPVIVSRVAPGTPADLCVPRLNEGDQVVLINGRDIAEHTHDQVVLFIKASCERHSGELMLLVRPNAVYDVVEEKLENEPDFQYIPEKAPLDSVHQDDHSLRESMIQLAEGLITGTVLTQFDQLYRKKPGMTMSCAKLPQNISKNRYRDISPYDATRVILKGNEDYINANYINMEIPSSSIINQYIACQGPLPHTCTDFWQMTWEQGSSMVVMLTTQVERGRVKCHQYWPEPTGSSSYGCYQVTCHSEEGNTAYIFRKMTLFNQEKNESRPLTQIQYIAWPDHGVPDDSSDFLDFVCHVRNKRAGKEEPVVVHCSAGIGRTGVLITMETAMCLIECNQPVYPLDIVRTMRDQRAMMIQTPSQYRFVCEAILKVYEEGFVKPLTTSTNK | In presence of the active wildtype PTPMEG phosphatase, both the NR2B subunit as well as Src kinase were dephosphorylated | In presence of the active wildtype PTPMEG phosphatase, both the NR2B subunit as well as Src kinase were dephosphorylated | In presence of PTPMEG (identified with a c-myc antibody from Upstate) there is a dephosphorylation of Src and fyn at position Y418 |  | 
PTPMEG-CS (inactive PTPase), full length clone (amino-terminal myc-tag, c-terminal HA tag) (protein) MTSRFRLPAGRTYNVRASELARDRQHTEVVCNILLLDNTVQAFKVNKHDQGQVLLDVVFKHLDLTEQDYFGLQLADDSTDNPRWLDPNKPIRKQLKRGSPYSLNFRVKFFVSDPNKLQEEYTRYQYFLQIKQDILTGRLPCPSNTAALLASFAVQSELGDYDQSENLSGYLSDYSFIPNQPQDFEKEIAKLHQQHIGLSPAEAEFNYLNTARTLELYGVEFHYARDQSNNEIMIGVMSGGILIYKNRVRMNTFPWLKIVKISFKCKQFFIQLRKELHESRETLLGFNMVNYRACKNLWKACVEHHTFFRLDRPLPPQKNFFAHYFTLGSKFRYCGRTEVQSVQYGKEKANKDRVFARSPSKPLARKLMDWEVVSRNSISDDRLETQSLPSRSPPGTPNHRNSTFTQEGTRLRPSSVGHLVDHMVHTSPSEVFVNQRSPSSTQANSIVLESSPSQETPGDGKPPALPPKQSKKNSWNQIHYSHSQQDLESHINETFDIPSSPEKPTPNGGIPHDNLVLIRMKPDENGRFGFNVKGGYDQKMPVIVSRVAPGTPADLCVPRLNEGDQVVLINGRDIAEHTHDQVVLFIKASCERHSGELMLLVRPNAVYDVVEEKLENEPDFQYIPEKAPLDSVHQDDHSLRESMIQLAEGLITGTVLTQFDQLYRKKPGMTMSCAKLPQNISKNRYRDISPYDATRVILKGNEDYINANYINMEIPSSSIINQYIACQGPLPHTCTDFWQMTWEQGSSMVVMLTTQVERGRVKCHQYWPEPTGSSSYGCYQVTCHSEEGNTAYIFRKMTLFNQEKNESRPLTQIQYIAWPDHGVPDDSSDFLDFVCHVRNKRAGKEEPVVVHSSAGIGRTGVLITMETAMCLIECNQPVYPLDIVRTMRDQRAMMIQTPSQYRFVCEAILKVYEEGFVKPLTTSTNK |  |  |  | Dephosphorylation of NR2B and Src kinase was reversed by addition of dephostatin, and unaffected in presence of the dominant negative form of PTPMEG (CS) | Dephosphorylation of NR2B and Src kinase was reversed by addition of dephostatin, and unaffected in presence of the dominant negative form of PTPMEG (CS)
